Legend:
[1] = molecular target: Elizabethkingia anophelis strain AG1 short CDC-like protein (CDCL^S) (Elizabethkingia anophelis strain AG1); assay: […]) in 20 mM HEPES (pH 7), 150 mM NaCl, […] (55:45) […]
[2] = molecular target: Elizabethkingia anophelis strain AG1 CDC-like protein (CDCL) (Elizabethkingia anophelis strain AG1); assay: SDS-agarose gel electrophoresis (SDS-AGE)

| Substance | stoichiometry N [1] | stoichiometry N [2] |
| --- | --- | --- |
| Elizabethkingia anophelis strain AG1 short CDC-like protein (CDCL^S) (natural protein) | 28 monomers |  |
| Elizabethkingia anophelis strain AG1 CDC-like protein (CDCL) (natural protein) |  | 2 |
